Reference: the supplement of paper PMC10567573
± gives the standard deviation.

Experiment: protein stability index of a GFP-peptide fusion (GPS, HEK-293T) (PSI 1-6); higher = more stable
[1] = treatment: DMSO, c terminus: native
[2] = treatment: MLN4924 1 uM, 8 h, c terminus: native
[3] = treatment: DMSO, c terminus: a fixed tail appended
[4] = treatment: MLN4924 1 uM, 8 h, c terminus: a fixed tail appended
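Further: 24-mer peptide tiles fused after GFP, lentivirally expressed, FACS-sorted into six equal bins by GFP/DsRed ratio, decoded by Illumina sequencing, PSI is the read-weighted mean bin number.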

Sequence	protein stability index [1]	protein stability index [2]	protein stability index [3]	protein stability index [4]
FPEALDELPLPPFLQPLDLTGKG [ANKRD9]	3.43 ± 0.22	3.52 ± 0.12	–	–
FPETTFISVTAYQNPQITQLKIAA [TBX6]	–	–	2.58 ± 0.72	2.73 ± 0.59
FPHSGKDCLLCFPETLPESSLFSV [C8orf76]	–	–	2.21 ± 0.52	2.36 ± 0.32
FPPEGNMEDKEMTGPQLPESLEDV [ZNF263]	–	–	5.58 ± 0.21	5.48 ± 0.22
FPTVVWTWWIMFLSTFSVPYFLFQ [SOAT1]	–	–	3.1 ± 0.56	2.99 ± 0.45
FREVYVGKETMCTVDGLHFNSTYN [TRIM9]	–	–	2.23 ± 0.098	2.4 ± 0.28
FRVGKKIGCGNFGELRLGKNLYTN [CSNK1G3]	–	–	2.06 ± 0.19	2.28 ± 0.087
FSDSRSNNDDDEDEDDEDEDEDED [TAF7L]	–	–	5.7 ± 0.19	5.58 ± 0.41
FSLACSLMGPSRMSLFSLYMVQDQ [M1AP]	–	–	3.19 ± 0.42	2.99 ± 0.32
FTFLSAKCLQGNADGDGGGGQCCR [PCDHGC5]	–	–	2.97 ± 0.18	3.29 ± 0.26
FVIKMPVMYRIGCLRDDVVFFIYL [CLPTM1]	–	–	3.05 ± 0.39	3.06 ± 0.25
FYFENALSKSNKPIHTIILNPHVH [CAMK2D]	–	–	2.01 ± 0.58	2.42 ± 0.044
GAELHLQPLEGGTPNSAGGPGAHI [ADAMTS4]	–	–	4.51 ± 1.1	4.74 ± 0.36
GAGIIVTEAGGVLMDVTGGPFDLM [IMPA1]	–	–	2.28 ± 0.4	2.48 ± 0.39
GAPSPGSSDVSTAGTGASRSSHSS [ELF3]	–	–	5.33 ± 0.29	5.32 ± 0.14
GCASFIYLRPQSNYSSSQDALISV [OR10K2]	–	–	2.65 ± 0.81	2.54 ± 0.61
GDPRPKIVWNKKGKKVSNQRFEVI [PTPRD]	–	–	2.94 ± 0.24	3.46 ± 0.64
GEDEENREHRVRRIHVRRHITHDE [KCTD13]	–	–	5.23 ± 0.2	5.1 ± 0.29
GEGRSRGSANDYKDTLGKGSSLSA [KRT71]	–	–	4.65 ± 0.52	4.96 ± 0.35
GFFEEKGAIFCPPCYDVRYAPSCA [PDLIM7]	–	–	2.26 ± 0.22	2.58 ± 0.3
GFTPDRLSSSCCHTVPDFHLSSPA [PLK2]	–	–	3.02 ± 0.22	3.15 ± 0.16
GGIETGSITEMFGEFRTGKTQICH [RAD51]	–	–	3.63 ± 0.34	3.71 ± 0.51
GGTPARSGTTLISVIVLDINDNAP [PCDHGC5]	–	–	2.66 ± 1.1	2.64 ± 1.6

Sequence	protein stability index [1]	protein stability index [2]	protein stability index [3]	protein stability index [4]
GHGYDSKKQQELTAAVLGLICEGL [ZBED1]	–	–	2.34 ± 0.31	2.09 ± 0.29
GHKRKQPLPKRVAKVPRPPSTLLP [FOXJ1]	–	–	4.02 ± 0.49	3.86 ± 0.041
GIESMDQCRHTLEQHNWNIEAAVQ [FAF2]	–	–	3.78 ± 0.2	4.08 ± 0.19
GIMCLKRLNYDRKELEKRREESQH [PPFIA4]	–	–	3.69 ± 0.31	3.62 ± 0.4
GIQQLLQAEKRAAEKVSEARKRKN [ATP6V1G1]	–	–	4.12 ± 0.62	3.84 ± 0.74
GKYDSGIPPYSRASLKGYQWLKDK [KCNAB2]	–	–	3.26 ± 0.073	3.23 ± 0.24
GLCKQDGQLRVFGAGLLSSISELK [TPH1]	–	–	2.05 ± 0.28	2.39 ± 0.4
GLDVLLAQEVRPRRWKLQVLDLRK [PRAME]	–	–	2.31 ± 0.46	2.33 ± 0.48
GLFVPSLLCGAAFGRLVANVLKSY [CLCN6]	–	–	2.2 ± 0.55	2.37 ± 0.64
GLLLRGAVDGILHMFTPKLDKMLD [SLC6A17]	–	–	2.35 ± 0.47	2.43 ± 0.66
GLLQLDHRGLRCSWEGLAVLDSLL [RSAD1]	–	–	2.31 ± 0.56	2.06 ± 0.31
GLLSKTAGFSPDCIMDDAINILQN [INTS4]	–	–	2.91 ± 0.33	2.89 ± 0.17
GLPSSELDAVENQLKWASWELHSL [ZNF24]	–	–	2.98 ± 0.15	3 ± 0.38
GLSESSGPHTISNQNNYRLLSCGK [ACSBG2]	–	–	4.55 ± 0.41	4 ± 0.28
GLSSVSPSHLLLPPDTVSRTGLEK [SPDEF]	–	–	4.52 ± 0.23	4.33 ± 0.2
GNGRPGRPSQYRPDGLRSGDGVPP [LCOR]	–	–	4.59 ± 0.31	4.79 ± 0.2
GNNPNGREAKMICFKSVAKTPYDT [ELOA2]	–	–	3.84 ± 0.43	3.93 ± 0.3
GNQLQLNQHCLDTAFNFFKMAVSR [BRF1]	–	–	2.25 ± 0.36	1.96 ± 0.28
GPDGHLPAVATLCDLFDREIVVTI [ESRRA]	–	–	3.01 ± 0.7	2.91 ± 0.41
GPGDGPPEIAQNFSAPDPPRPRPV [SMTNL2]	–	–	5.05 ± 0.19	5.03 ± 0.24
GPMPMSMPNVMTGTMGMAPLGNTP [CLINT1]	–	–	4.03 ± 0.21	4.02 ± 0.31
GPSLVPGKTPTVRAALICLTLVLV [CD207]	–	–	2.28 ± 0.44	2.73 ± 0.62
GQLDEKEKDLVGLAQIAEVLEMFD [RHOBTB1]	–	–	3.4 ± 0.37	3.61 ± 0.58

Sequence	protein stability index [1]	protein stability index [2]	protein stability index [3]	protein stability index [4]
GQTSGAREPPQAVSIKEAAGSSNL [VENTX]	–	–	5.26 ± 0.26	5.15 ± 0.25
GRGDEASEEGQNGSSPKSKTKWTK [ADD1]	–	–	5.22 ± 0.16	5.36 ± 0.36
GRTENGALAPKQELPSALESHEVP [ZNF24]	–	–	5.24 ± 0.1	5.27 ± 0.086
GSAPPRATPGGGTGEAARPHKGLN [PCDHGC5]	–	–	5.19 ± 0.34	5.26 ± 0.32
GSARYDFSHEILRDEESFFGERRI [ALKBH7]	–	–	3.75 ± 0.29	3.71 ± 0.5
GSLKSVEVREPALRPAKRELRGAE [SPSB4]	–	–	4.98 ± 0.37	5.03 ± 0.14
GSNDRVQGVISQLEDTCKTIEECC [TRIM55]	–	–	4.71 ± 0.098	4.77 ± 0.31
GSNYANFELDLGKKVLNLLKGAFP [PTPN9]	–	–	2.29 ± 0.42	2.12 ± 0.35
GSRLCLYEDGTELTEDYFPSVPDN [DFFB]	–	–	4.44 ± 0.44	4.66 ± 0.45
GSVADTVARVLRGCLENMPEADCI [PLK2]	–	–	2.88 ± 0.4	2.94 ± 0.33
GTPMALIVISYIHVAAAVLRIRSV [OR3A1]	–	–	3.16 ± 0.48	3.24 ± 0.074
GTPTSHVYMFKNGSGDSGDSSEEE [LYSMD4]	–	–	5.37 ± 0.4	5.39 ± 0.28
GYDHLWDETLSSSHQKCPQLGGPE [PLEKHN1]	–	–	4.19 ± 0.3	4.31 ± 0.32
GYKSNQVRGLYDFYLPREELWIYN [KLHDC2]	–	–	2.44 ± 0.16	1.98 ± 0.17
GYPTYKEKVKKRPGGRPEVIYNYV [BTBD10]	–	–	2.41 ± 0.16	2.85 ± 0.33
GYREDNIPQLEDVSNFLKERTGFS [TPH1]	–	–	3.75 ± 0.24	3.99 ± 0.42
HARTHPQTALLESSCENKRADLVF [MATN2]	–	–	4.09 ± 0.46	4.02 ± 0.19
HDTEIRKVHMKDVMSALWVSGLDS [GAN]	–	–	2.78 ± 0.29	2.75 ± 0.4
HFSFNVKFYPPDPAQLSEDITRYY [EPB41L3]	–	–	2.21 ± 0.24	2.12 ± 0.12
HIDAIILALPEDLQGILLKTGMT [DENND6A]	2.31 ± 0.59	2.59 ± 0.67	–	–
HITARIESDLTLESLSDEEIHPG [DRICH1]	4.47 ± 0.23	4.38 ± 0.37	–	–
HLRTHTGERPYKCSECGESFSRSS [ZNF263]	–	–	3.16 ± 0.19	3.38 ± 0.55
HLSGSHNTLAPTCFKAKLHRKRGS [RSPH3]	–	–	3.67 ± 0.14	3.77 ± 0.37

Sequence	protein stability index [1]	protein stability index [2]	protein stability index [3]	protein stability index [4]
HLSRLCVRHNLGDTRLGQVSALPL [SPSB2]	–	–	2.38 ± 0.14	2.54 ± 0.33
HLVIAEMMELGSRSRGASQKKQKL [FATE1]	–	–	3.25 ± 0.14	3.34 ± 0.2
HLYIYSIHSIPKGTEITIAFDFDY [KMT2E]	–	–	3.39 ± 0.45	3.08 ± 0.33
HNAVTSHQRPGWPGQPHSPFPHPT [NCF4]	–	–	3.11 ± 0.17	3.67 ± 0.21
HQLGFIHRDIKPDNLLLDAKGHVK [STK38L]	–	–	3.71 ± 0.31	4.12 ± 0.26
HQRFLREGRFWKSKNEDRGEEEAE [ZMYND11]	–	–	4.94 ± 0.21	5.27 ± 0.2
HRAHHKFSETHADPHNSRRGFFFS [SCD]	–	–	3.08 ± 0.18	3.05 ± 0.3
HRLRVQQAALRAARLRHQELFRLR [NOP53]	–	–	2.88 ± 0.23	2.87 ± 0.4
HRSYLGPGSTSPLETSGNPNGRYG [SLC6A17]	–	–	4.27 ± 0.062	4.26 ± 0.29
HSAAYRADPLRVSSRDKLTEMAAS [FUNDC2]	–	–	3.92 ± 0.3	4.23 ± 0.22
HSRFVELSEAYRVLSREQSRRSYD [DNAJC4]	–	–	3.54 ± 0.23	3.7 ± 0.14
HTTGPTGSAPNSPMALLTIGSSSE [TFE3]	–	–	4.53 ± 0.12	4.54 ± 0.23
HVQDPQNTVKVQVLYPDGQAQMIH [INTS4]	–	–	3.74 ± 0.23	3.52 ± 0.29
HVSPPPSADPARGLPRSRDCRVDL [PDLIM4]	–	–	4.76 ± 0.14	4.73 ± 0.13
HYKKAPIFTSEHGEKLYLVRALQ [NCK2]	2.42 ± 0.61	2.2 ± 0.34	–	–
ICAAAGRMGATMAAINSIYSNTDA [GLT8D2]	–	–	2.26 ± 0.43	2.2 ± 0.34
IDPRNGIPKLTPGDNPYMYPEQSK [SPATS1]	–	–	4.58 ± 0.13	4.5 ± 0.18
IDVSKREPPPVKQELPPYNGFGLV [EFHC1]	–	–	3 ± 0.095	3.03 ± 0.27
IELNGGQPPLTYKRFQTLISKMEP [CRY1]	–	–	2.53 ± 0.3	2.51 ± 0.16
IENIQRVAAGVLCELAQDKEAAEA [CTNNB1]	–	–	5.08 ± 0.11	5.1 ± 0.48
